# Values quoted from earlier work as cited in patent US11878044B2, “Combination therapy for ischemia” (NoNO Inc., priority 2011, dated 2024).
# Molecular target: binding of NMDAR 2B to PSD-95 (Homo sapiens, UniProt P78352)
# Conditions: reported by Bach
# binding of NMDAR 2B to PSD-95, sequence (P78352 whole entry): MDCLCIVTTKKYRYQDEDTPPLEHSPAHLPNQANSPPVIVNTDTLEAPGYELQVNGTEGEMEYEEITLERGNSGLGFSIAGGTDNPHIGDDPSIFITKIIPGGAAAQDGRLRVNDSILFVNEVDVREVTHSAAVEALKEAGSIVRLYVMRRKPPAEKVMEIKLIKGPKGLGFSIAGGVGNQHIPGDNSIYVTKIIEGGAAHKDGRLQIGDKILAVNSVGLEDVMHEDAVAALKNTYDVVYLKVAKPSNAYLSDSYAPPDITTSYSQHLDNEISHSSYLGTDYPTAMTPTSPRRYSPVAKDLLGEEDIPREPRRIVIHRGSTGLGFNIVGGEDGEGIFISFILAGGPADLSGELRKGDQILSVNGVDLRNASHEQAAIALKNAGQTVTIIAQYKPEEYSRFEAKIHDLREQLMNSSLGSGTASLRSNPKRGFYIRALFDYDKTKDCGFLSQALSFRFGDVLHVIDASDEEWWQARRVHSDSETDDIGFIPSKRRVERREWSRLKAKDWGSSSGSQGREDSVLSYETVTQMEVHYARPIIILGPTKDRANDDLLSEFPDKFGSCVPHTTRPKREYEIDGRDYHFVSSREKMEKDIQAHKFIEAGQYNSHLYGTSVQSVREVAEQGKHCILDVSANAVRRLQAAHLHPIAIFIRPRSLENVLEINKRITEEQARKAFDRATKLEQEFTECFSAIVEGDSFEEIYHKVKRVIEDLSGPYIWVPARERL
substance,measurement,value
IESDV,inhibiting binding of NMDAR 2B to PSD-95,effective in inhibiting binding of NMDAR 2B to PSD-95
